Patent publication US20050287608A1 (UNIVERSITY OF MEDICINE AND DENTISTRY, published 2005)

B1: Flag-Rad23 (yeast Rad23 with an amino-terminal Flag epitope) (other, yeast (Saccharomyces cerevisiae), UniProt P32628 1-398, looked up, not shown: small tags and cut ends)
chain: MVSLTFKNFKKEKVPLDLEPSNTILETKTKLAQSISCEESQIKLIYSGKVLQDSKTVSECGLKDGDQVVFMVSQKKSTKTKVTEPPIAPESATTPGRENSTEASPSTDASAAPAATAPEGSQPQEEQTATTERTESASTPGFVVGTERNETIERIMEMGYQREEVERALRAAFNNPDRAVEYLLMGIPENLRQPEPQQQTAAAAEQPSTAATTAEQPAEDDLFAQAAQGGNASSGALGTTGGATDAAQGGPPGSIGLTVEDLLSLRQVVSGNPEALAPLLENISARYPQLREHIMANPEVFVSMLLEAVGDNMQDVMEGADDMVEGEDIEVTGEAAAAGLGQGEGEGSFQVDYTPEDDQAISRLCELGFERDLVIQVYFACDKNEEAAANILFSDHAD
B2: Flag-rad23^uba1uba2 (yeast Rad23 with mutations in both UBA domains, amino-terminal Flag epitope) (other, yeast (Saccharomyces cerevisiae), UniProt P32628 1-398, looked up, not shown: small tags and cut ends)
chain: MVSLTFKNFKKEKVPLDLEPSNTILETKTKLAQSISCEESQIKLIYSGKVLQDSKTVSECGLKDGDQVVFMVSQKKSTKTKVTEPPIAPESATTPGRENSTEASPSTDASAAPAATAPEGSQPQEEQTATTERTESASTPGFVVGTERNETIERIMEMGYQREEVERALRAAFNNPDRAVEYALMGIPENLRQPEPQQQTAAAAEQPSTAATTAEQPAEDDLFAQAAQGGNASSGALGTTGGATDAAQGGPPGSIGLTVEDLLSLRQVVSGNPEALAPLLENISARYPQLREHIMANPEVFVSMLLEAVGDNMQDVMEGADDMVEGEDIEVTGEAAAAGLGQGEGEGSFQVDYTPEDDQAISRLCELGFERDLVIQVYFACDKNEEAAANIAFSDHAD

Target: Ub-Pro-βgal (proteolytic test substrate, ubiquitinated in yeast cells) (UniProt P00722 1-1024 = β-galactosidase, ubiquitinated in the cells (multi-Ub chains; sites not stated))
Experiment: cell-based or functional assay

Sequence of Ub-Pro-βgal (proteolytic test substrate, ubiquitinated in yeast cells) (P00722 whole entry): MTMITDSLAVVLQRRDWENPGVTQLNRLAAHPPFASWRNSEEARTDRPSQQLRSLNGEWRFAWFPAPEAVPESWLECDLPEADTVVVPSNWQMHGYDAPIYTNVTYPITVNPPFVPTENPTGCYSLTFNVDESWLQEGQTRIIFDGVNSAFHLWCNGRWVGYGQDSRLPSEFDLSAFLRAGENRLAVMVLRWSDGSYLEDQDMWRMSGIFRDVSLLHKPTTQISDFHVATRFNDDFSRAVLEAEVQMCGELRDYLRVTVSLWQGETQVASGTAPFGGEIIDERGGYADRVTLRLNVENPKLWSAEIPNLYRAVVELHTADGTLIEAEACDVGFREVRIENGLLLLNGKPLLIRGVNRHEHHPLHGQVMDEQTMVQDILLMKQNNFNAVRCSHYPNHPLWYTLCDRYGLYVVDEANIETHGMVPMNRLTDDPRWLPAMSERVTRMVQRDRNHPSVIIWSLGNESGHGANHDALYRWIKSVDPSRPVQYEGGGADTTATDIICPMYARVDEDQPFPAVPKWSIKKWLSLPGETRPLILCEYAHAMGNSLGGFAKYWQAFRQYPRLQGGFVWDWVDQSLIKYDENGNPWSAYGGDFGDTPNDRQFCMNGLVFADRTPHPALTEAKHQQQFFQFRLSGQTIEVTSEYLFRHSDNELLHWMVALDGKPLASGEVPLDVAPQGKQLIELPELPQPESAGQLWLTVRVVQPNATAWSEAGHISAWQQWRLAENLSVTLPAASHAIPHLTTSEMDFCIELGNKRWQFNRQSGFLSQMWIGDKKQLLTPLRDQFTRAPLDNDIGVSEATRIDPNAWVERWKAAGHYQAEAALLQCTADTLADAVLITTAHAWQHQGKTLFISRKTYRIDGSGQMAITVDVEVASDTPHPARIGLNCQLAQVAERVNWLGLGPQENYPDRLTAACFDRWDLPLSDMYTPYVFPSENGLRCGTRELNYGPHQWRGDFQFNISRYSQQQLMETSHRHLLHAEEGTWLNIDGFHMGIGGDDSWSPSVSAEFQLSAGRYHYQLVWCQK

Binder	t1/2 of Ub-Pro-βgal by pulse-chase on overexpression of Flag-Rad23 in yeast [min]	t1/2 of Ub-Pro-βgal by pulse-chase on expression of Flag-rad23^uba1uba2 in yeast [min]
B1	> 100	–
B2	–	~10
